Test results reported in patent US20250263469A1 (HOSPITAL FOR SICK CHILDREN, published 2025).

How the values were obtained:
[1] = target: T1, mouse FcRn (mouse, UniProt Q61559 22-297; P01887 21-119); assay: pH 5.6
T1 construct: also called mFcRn
T1 sequence (looked up) 1: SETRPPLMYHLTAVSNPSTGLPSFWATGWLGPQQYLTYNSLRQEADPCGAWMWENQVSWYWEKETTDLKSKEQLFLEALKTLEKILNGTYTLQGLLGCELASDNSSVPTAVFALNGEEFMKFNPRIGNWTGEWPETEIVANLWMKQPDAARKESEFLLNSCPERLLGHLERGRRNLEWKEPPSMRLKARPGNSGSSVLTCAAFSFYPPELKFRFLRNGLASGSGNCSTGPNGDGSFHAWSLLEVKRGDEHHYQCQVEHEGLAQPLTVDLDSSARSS
T1 sequence (looked up) 2: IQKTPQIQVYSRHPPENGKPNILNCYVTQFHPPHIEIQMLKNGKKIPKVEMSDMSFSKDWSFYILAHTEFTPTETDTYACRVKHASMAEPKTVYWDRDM

[2] = target: T1, mouse FcRn

B1: mouse surrogate Multabody (HD37, mouse ferritin), LALAP Fc (other, not shown: a dimerising Fc or GST; large carriers; small tags and cut ends)
chain 1: KPCPPCKCPAPNAAGGPSVFIFPPKIKDVLMISLSPIVTCVVVDVSEDDPDVQISWFVNNVEVHTAQTQTHREDYNSTLRVVSALPIQHQDWMSGKEFKCKVNNKDLGAPIERTISKPKGSVRAPQVYVLPPPEEEMTKKQVTLTCMVTDFMPEDIYVEWTNNGKTELNYKNTEPVLDSDGSYFMYSKLRVEKKNWVERNSYSCSVVHEGLHNHHTTKSFSRTPGKGGSSGSGSGSTGTSSSGTGTSAGTTGTSASTSGSGSGGGGGSGGGGSAGGTATAGASSGSGSSGSSSSGGTGKPCPPCKCPAPNAAGGPSVFIFPPKIKDVLMISLSPIVTCVVVDVSEDDPDVQISWFVNNVEVHTAQTQTHREDYNSTLRVVSALPIQHQDWMSGKEFKCKVNNKDLGAPIERTISKPKGSVRAPQVYVLPPPEEEMTKKQVTLTCMVTDFMPEDIYVEWTNNGKTELNYKNTEPVLDSDGSYFMYSKLRVEKKNWVERNSYSCSVVHEGLHNHHTTKSFSRTPGKSRASTASSASSGGGGGGSGGSGGSGGSMTSQIRQNYSTEVEAAVNRLVNLHLRASYTYLSLGFFFDRDDVALEGVGHFFRELAEEKREGAERLLEFQNDRGGRALFQDVQKPSQDEWGKTQEAMEAALAMEKNLNQALLDLHALGSARTDPHLCDFLESHYLDKEVKLIKKMGNHLTNLRRVAGPQPAQTGAPQGSLGEYLFERLTLKHD
chain 2: MTSQIRQNYSTEVEAAVNRLVNLHLRASYTYLSLGFFFDRDDVALEGVGHFFRELAEEKREGAERLLEFQNDRGGRALFQDVQKPSQDEWGKTQEAMEAALAMEKNLNQALLDLHALGSARTDPHLCDFLESHYLDKEVKLIKKMGNHLTNLRRVAGPQPAQTGAPQGSLGEYLFERLTLKHD
notes: also called mLALAP MB; Fc-modified MB (LALAP mutation)
**Q.** Which results are given for B1?
**A.** Kd [1]: < 1 pM; koff [1]: < 1e-07 s⁻¹; kon [2]: 2.4e+06 M⁻¹ s⁻¹
